From patent US20110110934A1

Target: mG-CSF (recombinant murine G-CSF, R&D Systems Cat #414-CS) (mouse) (UniProt P09920)
Assay: cell-based or functional assay

UniProt P09920, sequence (P09920 31-208 limits assumed): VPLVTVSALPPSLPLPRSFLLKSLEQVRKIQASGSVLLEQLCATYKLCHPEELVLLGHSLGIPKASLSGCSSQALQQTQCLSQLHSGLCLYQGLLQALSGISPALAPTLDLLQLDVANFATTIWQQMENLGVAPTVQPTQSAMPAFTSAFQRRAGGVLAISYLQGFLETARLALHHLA

inhibition of mG-CSF proliferation of hG-CSFR BaF3 cells (MTS reduction, 48 hours), IC50 [pM] | Substance
10 | Anti-G-CSF (MAB414) (antibody)
22 | soluble hG-CSFR-Fc protein (from UniProt Q99062 25-627) (Fc fusion)
